Results: US20040018172A1 (US Dept. of Health and Human Services, published 2004)

T1: ^125I-IFN-α2b binding site on Daudi and WISH cells (human)
T1 chain 1: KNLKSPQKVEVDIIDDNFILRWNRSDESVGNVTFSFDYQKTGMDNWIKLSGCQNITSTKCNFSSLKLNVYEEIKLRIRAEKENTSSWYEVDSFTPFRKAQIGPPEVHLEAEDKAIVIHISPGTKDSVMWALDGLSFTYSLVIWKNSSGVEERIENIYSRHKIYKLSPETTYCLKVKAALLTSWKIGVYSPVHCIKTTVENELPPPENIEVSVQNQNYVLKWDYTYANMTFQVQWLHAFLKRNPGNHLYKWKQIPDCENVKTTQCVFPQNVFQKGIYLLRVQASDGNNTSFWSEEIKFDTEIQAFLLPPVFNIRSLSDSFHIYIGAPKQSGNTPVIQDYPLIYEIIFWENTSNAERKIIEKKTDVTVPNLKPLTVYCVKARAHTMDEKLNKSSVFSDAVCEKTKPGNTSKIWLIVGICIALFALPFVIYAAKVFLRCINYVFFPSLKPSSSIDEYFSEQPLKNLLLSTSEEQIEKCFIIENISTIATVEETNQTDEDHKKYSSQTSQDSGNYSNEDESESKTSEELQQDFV
T1 chain 2: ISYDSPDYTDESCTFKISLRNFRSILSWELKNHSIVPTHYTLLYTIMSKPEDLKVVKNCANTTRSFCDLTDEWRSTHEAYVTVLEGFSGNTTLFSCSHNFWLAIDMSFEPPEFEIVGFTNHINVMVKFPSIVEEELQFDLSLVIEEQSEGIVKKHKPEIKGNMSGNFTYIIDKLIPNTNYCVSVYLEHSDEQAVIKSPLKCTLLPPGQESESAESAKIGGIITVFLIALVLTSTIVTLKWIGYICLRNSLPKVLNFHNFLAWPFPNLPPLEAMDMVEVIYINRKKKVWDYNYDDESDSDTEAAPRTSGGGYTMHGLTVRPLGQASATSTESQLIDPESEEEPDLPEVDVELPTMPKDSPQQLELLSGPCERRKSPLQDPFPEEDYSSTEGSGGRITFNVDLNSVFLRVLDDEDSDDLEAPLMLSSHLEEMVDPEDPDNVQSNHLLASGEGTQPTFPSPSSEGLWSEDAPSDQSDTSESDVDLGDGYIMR

B1: IFN-α21a (ligand, human, UniProt P01568 24-189, looked up)
chain: CDLPQTHSLGNRRALILLAQMGRISPFSCLKDRHDFGFPQEEFDGNQFQKAQAISVLHEMIQQTFNLFSTKDSSATWEQSLLEKFSTELNQQLNDLEACVIQEVGVEETPLMNVDSILAVKKYFQRITLYLTEKKYSPCAWEVVRAEIMRSFSLSKIFQERLRRKE
notes: mature; Recombinant, made in E. coli from pQE30/A21 and purified on Ni-NTA, so an amino-terminal hexa-histidine tag may be present; also called interferon-α21a; IFNA21
B2: HY-2: IFN-α21a(1-95)/IFN-α2c(96-166) (ligand)
chain: CDLPQTHSLGNRRALILLAQMGRISPFSCLKDRHDFGFPQEEFDGNQFQKAQAISVLHEMIQQTFNLFSTKDSSATWEQSLLEKFSTELNQQLNDLEACVIQGVGVTETPLMKEDSILAVRKYFQRITLYLKEKKYSPCAWEVVRAEIMRSFSLSTNLQESLRSKE
notes: Expressed from pQE30 in E. coli and purified on Ni-NTA, so an amino-terminal hexa-histidine tag may be present; also called AF085804

Tests used:
[1] = target: T1, ^125I-IFN-α2b binding site on Daudi and …; assay: displacement of ^125I-IFN-α2b from WISH cells (competitor: ^125I-IFN-α2b)
[2] = target: T1, ^125I-IFN-α2b binding site on Daudi and …; assay: displacement of ^125I-IFN-α2b from Daudi cells (competitor: ^125I-IFN-α2b)

Binder | IC50 [1] | IC50 [2]
B1 | > 0.2 µg/mL | > 0.4 µg/mL
B2 | > 0.2 µg/mL | > 0.4 µg/mL
